Laboratory results as given in patent US20260001928A1 (CORTERIA PHARMACEUTICALS, priority 2022, published 2026).
*1 amine or outer side, *2 acyl side, *3 side chain or, on linkers, in order; H or OH if unused. Where no end group is shown, it is not given here. Side-chain parts run from the residue outwards. [ ]: non-standard residue; d: D form. The star is where a group is joined. C18 diacid = O=C(O)CCCCCCCCCCCCCCCCC(=O)*; C16 diacid = O=C(O)CCCCCCCCCCCCCCC(=O)*; γGlu = O=C(O)[C@H](CCC(=O)[*:2])N[*:1]; NMeI = CC[C@H](C)[C@H](NC)C(=O)O; Pentanoyl = CCCCC(=O)*; AEEA = NCCOCCOCC(=O)O; Aib = CC(C)(N)C(=O)O

T1: CRF1R receptor (UniProt P34998 24-415, limits assumed)
T1 sequence (looked up): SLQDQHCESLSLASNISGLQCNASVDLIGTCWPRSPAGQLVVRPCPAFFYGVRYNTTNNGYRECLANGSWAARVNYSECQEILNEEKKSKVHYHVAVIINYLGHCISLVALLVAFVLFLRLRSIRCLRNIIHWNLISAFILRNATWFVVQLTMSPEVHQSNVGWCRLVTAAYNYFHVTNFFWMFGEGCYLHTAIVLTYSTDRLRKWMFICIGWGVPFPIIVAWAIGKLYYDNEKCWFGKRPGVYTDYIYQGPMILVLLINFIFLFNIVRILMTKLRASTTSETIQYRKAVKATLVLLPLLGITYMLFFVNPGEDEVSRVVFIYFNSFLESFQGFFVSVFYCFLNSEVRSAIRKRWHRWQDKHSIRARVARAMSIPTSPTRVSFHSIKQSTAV


How the values were obtained:
[1] = target: human corticotropin-releasing factor 2a (CRF2a receptor) (human), Q13324; assay: cell-based or functional assay
Chain of human corticotropin-releasing factor 2a (CRF2a receptor) (human), Q13324 (Q13324 20-411): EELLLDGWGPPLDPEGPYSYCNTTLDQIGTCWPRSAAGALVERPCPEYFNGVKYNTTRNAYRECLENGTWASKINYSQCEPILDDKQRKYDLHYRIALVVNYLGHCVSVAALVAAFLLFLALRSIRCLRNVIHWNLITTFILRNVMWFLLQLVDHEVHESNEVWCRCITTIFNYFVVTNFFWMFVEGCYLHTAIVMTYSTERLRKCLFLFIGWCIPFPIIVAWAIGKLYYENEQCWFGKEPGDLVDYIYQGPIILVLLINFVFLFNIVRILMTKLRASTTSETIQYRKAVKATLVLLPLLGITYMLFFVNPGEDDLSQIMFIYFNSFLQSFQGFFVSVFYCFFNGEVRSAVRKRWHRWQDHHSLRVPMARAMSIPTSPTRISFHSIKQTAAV

[2] = target: T1, CRF1R receptor; assay: cell-based or functional assay

Binder	EC50 [nM] (cAMP) [1]	Emax (% I) [2] [%]
Pentanoyl-VLSLD[dV]PIKLK([γGlu-C16 diacid])KILLEQEKQKKQREQAETN[Aib]QILAQV-NH2 (SMILES CCCCC(=O)N[C@H](C(=O)N[C@@H](CC(C)C)C(=O)N[C@@H](CO)C(=O)N[C@@H](CC(C)C)C(=O)N[C@@H](CC(=O)O)C(=O)N[C@@H](C(=O)N1CCC[C@H]1C(=O)N[C@H](C(=O)N[C@@H](CCCCN)C(=O)N[C@@H](CC(C)C)C(=O)N[C@@H](CCCCNC(=O)CC[C@H](NC(=O)CCCCCCCCCCCCCCC(=O)O)C(=O)O)C(=O)N[C@@H](CCCCN)C(=O)N[C@H](C(=O)N[C@@H](CC(C)C)C(=O)N[C@@H](CC(C)C)C(=O)N[C@@H](CCC(=O)O)C(=O)N[C@@H](CCC(N)=O)C(=O)N[C@@H](CCC(=O)O)C(=O)N[C@@H](CCCCN)C(=O)N[C@@H](CCC(N)=O)C(=O)N[C@@H](CCCCN)C(=O)N[C@@H](CCCCN)C(=O)N[C@@H](CCC(N)=O)C(=O)N[C@@H](CCCNC(=N)N)C(=O)N[C@@H](CCC(=O)O)C(=O)N[C@@H](CCC(N)=O)C(=O)N[C@@H](C)C(=O)N[C@@H](CCC(=O)O)C(=O)N[C@H](C(=O)N[C@@H](CC(N)=O)C(=O)NC(C)(C)C(=O)N[C@@H](CCC(N)=O)C(=O)N[C@H](C(=O)N[C@@H](CC(C)C)C(=O)N[C@@H](C)C(=O)N[C@@H](CCC(N)=O)C(=O)N[C@H](C(N)=O)C(C)C)[C@@H](C)CC)[C@@H](C)O)[C@@H](C)CC)[C@@H](C)CC)C(C)C)C(C)C) [SEQ ID NO 80]	0.35	10
[NMeI]VLSLD[dV]PIKLK([γGlu-C16 diacid])KILLEQEKQKKQREQAETNVQILAQV-NH2 (N-terminus assumed; SMILES CC[C@H](C)[C@H](NC)C(=O)N[C@H](C(=O)N[C@@H](CC(C)C)C(=O)N[C@@H](CO)C(=O)N[C@@H](CC(C)C)C(=O)N[C@@H](CC(=O)O)C(=O)N[C@@H](C(=O)N1CCC[C@H]1C(=O)N[C@H](C(=O)N[C@@H](CCCCN)C(=O)N[C@@H](CC(C)C)C(=O)N[C@@H](CCCCNC(=O)CC[C@H](NC(=O)CCCCCCCCCCCCCCC(=O)O)C(=O)O)C(=O)N[C@@H](CCCCN)C(=O)N[C@H](C(=O)N[C@@H](CC(C)C)C(=O)N[C@@H](CC(C)C)C(=O)N[C@@H](CCC(=O)O)C(=O)N[C@@H](CCC(N)=O)C(=O)N[C@@H](CCC(=O)O)C(=O)N[C@@H](CCCCN)C(=O)N[C@@H](CCC(N)=O)C(=O)N[C@@H](CCCCN)C(=O)N[C@@H](CCCCN)C(=O)N[C@@H](CCC(N)=O)C(=O)N[C@@H](CCCNC(=N)N)C(=O)N[C@@H](CCC(=O)O)C(=O)N[C@@H](CCC(N)=O)C(=O)N[C@@H](C)C(=O)N[C@@H](CCC(=O)O)C(=O)N[C@H](C(=O)N[C@@H](CC(N)=O)C(=O)N[C@H](C(=O)N[C@@H](CCC(N)=O)C(=O)N[C@H](C(=O)N[C@@H](CC(C)C)C(=O)N[C@@H](C)C(=O)N[C@@H](CCC(N)=O)C(=O)N[C@H](C(N)=O)C(C)C)[C@@H](C)CC)C(C)C)[C@@H](C)O)[C@@H](C)CC)[C@@H](C)CC)C(C)C)C(C)C) [SEQ ID NO 66]	1.05	4
Pentanoyl-VLSLD[dV]PIKLK([γGlu-C16 diacid])KILLEQEKQKKQREQAETNVQILAQV-NH2 (SMILES CCCCC(=O)N[C@H](C(=O)N[C@@H](CC(C)C)C(=O)N[C@@H](CO)C(=O)N[C@@H](CC(C)C)C(=O)N[C@@H](CC(=O)O)C(=O)N[C@@H](C(=O)N1CCC[C@H]1C(=O)N[C@H](C(=O)N[C@@H](CCCCN)C(=O)N[C@@H](CC(C)C)C(=O)N[C@@H](CCCCNC(=O)CC[C@H](NC(=O)CCCCCCCCCCCCCCC(=O)O)C(=O)O)C(=O)N[C@@H](CCCCN)C(=O)N[C@H](C(=O)N[C@@H](CC(C)C)C(=O)N[C@@H](CC(C)C)C(=O)N[C@@H](CCC(=O)O)C(=O)N[C@@H](CCC(N)=O)C(=O)N[C@@H](CCC(=O)O)C(=O)N[C@@H](CCCCN)C(=O)N[C@@H](CCC(N)=O)C(=O)N[C@@H](CCCCN)C(=O)N[C@@H](CCCCN)C(=O)N[C@@H](CCC(N)=O)C(=O)N[C@@H](CCCNC(=N)N)C(=O)N[C@@H](CCC(=O)O)C(=O)N[C@@H](CCC(N)=O)C(=O)N[C@@H](C)C(=O)N[C@@H](CCC(=O)O)C(=O)N[C@H](C(=O)N[C@@H](CC(N)=O)C(=O)N[C@H](C(=O)N[C@@H](CCC(N)=O)C(=O)N[C@H](C(=O)N[C@@H](CC(C)C)C(=O)N[C@@H](C)C(=O)N[C@@H](CCC(N)=O)C(=O)N[C@H](C(N)=O)C(C)C)[C@@H](C)CC)C(C)C)[C@@H](C)O)[C@@H](C)CC)[C@@H](C)CC)C(C)C)C(C)C) [SEQ ID NO 81]	0.8	6

Results, then the binder that gave them:

EC50 [nM] (cAMP) [1]	Emax (% I) [2] [%]	Binder
5.76	6	Pentanoyl-VLSLD[dV]PIKLK([AEEA-AEEA-γGlu-C18 diacid])KILLEQEKQKKQREQAETNVQILAQV-NH2 (SMILES CCCCC(=O)N[C@H](C(=O)N[C@@H](CC(C)C)C(=O)N[C@@H](CO)C(=O)N[C@@H](CC(C)C)C(=O)N[C@@H](CC(=O)O)C(=O)N[C@@H](C(=O)N1CCC[C@H]1C(=O)N[C@H](C(=O)N[C@@H](CCCCN)C(=O)N[C@@H](CC(C)C)C(=O)N[C@@H](CCCCNC(=O)COCCOCCNC(=O)COCCOCCNC(=O)CC[C@H](NC(=O)CCCCCCCCCCCCCCCCC(=O)O)C(=O)O)C(=O)N[C@@H](CCCCN)C(=O)N[C@H](C(=O)N[C@@H](CC(C)C)C(=O)N[C@@H](CC(C)C)C(=O)N[C@@H](CCC(=O)O)C(=O)N[C@@H](CCC(N)=O)C(=O)N[C@@H](CCC(=O)O)C(=O)N[C@@H](CCCCN)C(=O)N[C@@H](CCC(N)=O)C(=O)N[C@@H](CCCCN)C(=O)N[C@@H](CCCCN)C(=O)N[C@@H](CCC(N)=O)C(=O)N[C@@H](CCCNC(=N)N)C(=O)N[C@@H](CCC(=O)O)C(=O)N[C@@H](CCC(N)=O)C(=O)N[C@@H](C)C(=O)N[C@@H](CCC(=O)O)C(=O)N[C@H](C(=O)N[C@@H](CC(N)=O)C(=O)N[C@H](C(=O)N[C@@H](CCC(N)=O)C(=O)N[C@H](C(=O)N[C@@H](CC(C)C)C(=O)N[C@@H](C)C(=O)N[C@@H](CCC(N)=O)C(=O)N[C@H](C(N)=O)C(C)C)[C@@H](C)CC)C(C)C)[C@@H](C)O)[C@@H](C)CC)[C@@H](C)CC)C(C)C)C(C)C) [SEQ ID NO 121]
0.6	7	[NMeI]VLSLD[dV]PIKLK([AEEA-AEEA-γGlu-C18 diacid])KILLEQEKQKKQREQAETN[Aib]QILAQV-NH2 (N-terminus assumed; SMILES CC[C@H](C)[C@H](NC)C(=O)N[C@H](C(=O)N[C@@H](CC(C)C)C(=O)N[C@@H](CO)C(=O)N[C@@H](CC(C)C)C(=O)N[C@@H](CC(=O)O)C(=O)N[C@@H](C(=O)N1CCC[C@H]1C(=O)N[C@H](C(=O)N[C@@H](CCCCN)C(=O)N[C@@H](CC(C)C)C(=O)N[C@@H](CCCCNC(=O)COCCOCCNC(=O)COCCOCCNC(=O)CC[C@H](NC(=O)CCCCCCCCCCCCCCCCC(=O)O)C(=O)O)C(=O)N[C@@H](CCCCN)C(=O)N[C@H](C(=O)N[C@@H](CC(C)C)C(=O)N[C@@H](CC(C)C)C(=O)N[C@@H](CCC(=O)O)C(=O)N[C@@H](CCC(N)=O)C(=O)N[C@@H](CCC(=O)O)C(=O)N[C@@H](CCCCN)C(=O)N[C@@H](CCC(N)=O)C(=O)N[C@@H](CCCCN)C(=O)N[C@@H](CCCCN)C(=O)N[C@@H](CCC(N)=O)C(=O)N[C@@H](CCCNC(=N)N)C(=O)N[C@@H](CCC(=O)O)C(=O)N[C@@H](CCC(N)=O)C(=O)N[C@@H](C)C(=O)N[C@@H](CCC(=O)O)C(=O)N[C@H](C(=O)N[C@@H](CC(N)=O)C(=O)NC(C)(C)C(=O)N[C@@H](CCC(N)=O)C(=O)N[C@H](C(=O)N[C@@H](CC(C)C)C(=O)N[C@@H](C)C(=O)N[C@@H](CCC(N)=O)C(=O)N[C@H](C(N)=O)C(C)C)[C@@H](C)CC)[C@@H](C)O)[C@@H](C)CC)[C@@H](C)CC)C(C)C)C(C)C) [SEQ ID NO 118]
1.33	3	Pentanoyl-VLSLD[dV]PIKLK([AEEA-AEEA-γGlu-C18 diacid])KILLEQEKQKKQREQAETN[Aib]QILAQV-NH2 (SMILES CCCCC(=O)N[C@H](C(=O)N[C@@H](CC(C)C)C(=O)N[C@@H](CO)C(=O)N[C@@H](CC(C)C)C(=O)N[C@@H](CC(=O)O)C(=O)N[C@@H](C(=O)N1CCC[C@H]1C(=O)N[C@H](C(=O)N[C@@H](CCCCN)C(=O)N[C@@H](CC(C)C)C(=O)N[C@@H](CCCCNC(=O)COCCOCCNC(=O)COCCOCCNC(=O)CC[C@H](NC(=O)CCCCCCCCCCCCCCCCC(=O)O)C(=O)O)C(=O)N[C@@H](CCCCN)C(=O)N[C@H](C(=O)N[C@@H](CC(C)C)C(=O)N[C@@H](CC(C)C)C(=O)N[C@@H](CCC(=O)O)C(=O)N[C@@H](CCC(N)=O)C(=O)N[C@@H](CCC(=O)O)C(=O)N[C@@H](CCCCN)C(=O)N[C@@H](CCC(N)=O)C(=O)N[C@@H](CCCCN)C(=O)N[C@@H](CCCCN)C(=O)N[C@@H](CCC(N)=O)C(=O)N[C@@H](CCCNC(=N)N)C(=O)N[C@@H](CCC(=O)O)C(=O)N[C@@H](CCC(N)=O)C(=O)N[C@@H](C)C(=O)N[C@@H](CCC(=O)O)C(=O)N[C@H](C(=O)N[C@@H](CC(N)=O)C(=O)NC(C)(C)C(=O)N[C@@H](CCC(N)=O)C(=O)N[C@H](C(=O)N[C@@H](CC(C)C)C(=O)N[C@@H](C)C(=O)N[C@@H](CCC(N)=O)C(=O)N[C@H](C(N)=O)C(C)C)[C@@H](C)CC)[C@@H](C)O)[C@@H](C)CC)[C@@H](C)CC)C(C)C)C(C)C) [SEQ ID NO 120]
